Measured values published in the Human Domainome abundance scans (Beltran et al. 2025).
± gives the uncertainty stated by the source.

B1: Histone-lysine N-methyltransferase 2A, residues 1148 to 1194; numbered along this chain, Q03164 (parent)
chain: KGRRSRRCGQCPGCQVPEDCGVCTNCLDKPKFGGRNIKKQCCKMRKC

Variants of: B1
Experiment: abundance fitness (aPCA) (normalised: wild type 0, dead -1); higher = more abundant; growth selection in yeast, the domain comes from the species named
Settings: Homo sapiens

First: KGRRSRRCGQCPGCQVPEDCGVCTNCLDKPKWGGRNIKKQCCKMRKC
Second: KGRRSRRCGQCPGCQVPEDCGVCTNCLDKPKIGGRNIKKQCCKMRKC
The abundance fitness of the first is higher: -0.337 ± 0.14 for the first, -0.641 ± 0.099 for the second.

KGRRSRRCGQCPGCQVPEDCGVCTNCLDKPKSGGRNIKKQCCKMRKC and KGRRSRRCGQCPGCQVPEDCGVCTNCLDKPKHGGRNIKKQCCKMRKC are within error of each other in abundance fitness: -0.185 ± 0.077 for the first, -0.091 ± 0.078 for the second.

Going from KGRRSRRCGQCPGCQVPEDCGVCTNCLDKPKDGGRNIKKQCCKMRKC to KGRRSRRCGQCPGCQVPEDCGVCTNCLDKPKNGGRNIKKQCCKMRKC, the abundance fitness falls from 0.01 ± 0.098 to -0.228 ± 0.09.

KGRRSRRCGQCPGCQVPEDCGVCTNCLDKPKRGGRNIKKQCCKMRKC and KGRRSRRCGQCPGCQVPEDCGVCTNCLDKPWFGGRNIKKQCCKMRKC are within error of each other in abundance fitness: -0.496 ± 0.094 for the first, -0.685 ± 0.13 for the second.

Compared with KGRRSRRCGQCPGCQVPEDCGVCTNCLDKPFFGGRNIKKQCCKMRKC, KGRRSRRCGQCPGCQVPEDCGVCTNCLDKPRFGGRNIKKQCCKMRKC is higher in abundance fitness: -0.627 ± 0.088 for the first, -0.311 ± 0.09 for the second.

First: KGRRSRRCGQCPGCQVPIDCGVCTNCLDKPKFGGRNIKKQCCKMRKC
Second: KGRRSRRCGQCPGCQVPWDCGVCTNCLDKPKFGGRNIKKQCCKMRKC
The abundance fitness of the first is lower: -0.364 ± 0.14 for the first, -0.1 ± 0.12 for the second.

KGRRSRRCGQCPGCQVPCDCGVCTNCLDKPKFGGRNIKKQCCKMRKC and KGRRSRRCGQCPGIQVPEDCGVCTNCLDKPKFGGRNIKKQCCKMRKC are within error of each other in abundance fitness: -0.485 ± 0.14 for the first, -0.663 ± 0.18 for the second.

KGRRSRRCGQCPGTQVPEDCGVCTNCLDKPKFGGRNIKKQCCKMRKC and KGRRSRRCGQCPGAQVPEDCGVCTNCLDKPKFGGRNIKKQCCKMRKC are within error of each other in abundance fitness: -0.728 ± 0.14 for the first, -0.738 ± 0.11 for the second.

KGRRSRRCGQCPGCQVPEDCGVCTNCLDKPKFGGRNIKKQCCKMPKC and KGRRSRRCGQCPGCQVPEDCGVCTNCLDKPKFGGRNIKKQCCKMYKC are within error of each other in abundance fitness: -0.67 ± 0.14 for the first, -0.735 ± 0.18 for the second.

KGRRSRRCGQCPGCQVPEDCGVCTNCLDKPKFGGRNIKKQCCKMGKC and KGRRSRRCGQCPGCQVPEDCGVCTNCLDKPKFGGRNIKKQCCKMDKC are within error of each other in abundance fitness: -0.429 ± 0.093 for the first, -0.411 ± 0.17 for the second.

Going from KGRRSWRCGQCPGCQVPEDCGVCTNCLDKPKFGGRNIKKQCCKMRKC to KGRRSRRCGQCPRCQVPEDCGVCTNCLDKPKFGGRNIKKQCCKMRKC, the abundance fitness falls from -0.064 ± 0.11 to -0.719 ± 0.1.

First: KGRRSRRCGQCPCCQVPEDCGVCTNCLDKPKFGGRNIKKQCCKMRKC
Second: KGRRSRRCGQIPGCQVPEDCGVCTNCLDKPKFGGRNIKKQCCKMRKC
The abundance fitness of the first is higher: -0.315 ± 0.086 for the first, -0.913 ± 0.18 for the second.

KGRRSRRCGQRPGCQVPEDCGVCTNCLDKPKFGGRNIKKQCCKMRKC and KGRRSRRTGQCPGCQVPEDCGVCTNCLDKPKFGGRNIKKQCCKMRKC are within error of each other in abundance fitness: -0.81 ± 0.096 for the first, -0.7 ± 0.13 for the second.

KGRRSRRCGQCPGCQVPEQCGVCTNCLDKPKFGGRNIKKQCCKMRKC and KGRRSRRCGQCPGCQVPEECGVCTNCLDKPKFGGRNIKKQCCKMRKC are within error of each other in abundance fitness: -1.05 ± 0.19 for the first, -0.962 ± 0.15 for the second.

KGRRSRRCGQCPGCQVPEDCGVCTNCLDKPKFGGRNISKQCCKMRKC and KGRRSRRCGQCPGCQVPEDCGVCTNCLDKPKFGGRNIRKQCCKMRKC are within error of each other in abundance fitness: -0.011 ± 0.095 for the first, -0.036 ± 0.085 for the second.

KGRRSRRCGQCPGCQVPEDCGVCTNCLDKPKFGGRNIFKQCCKMRKC and KGRRSRRCGQCPGCQVPEDCGVCTNCLDKNKFGGRNIKKQCCKMRKC are within error of each other in abundance fitness: -0.125 ± 0.16 for the first, 0.057 ± 0.18 for the second.

KGRRSRRCGQCPGCQVPEDCGVCTNCLDKPKFGGRNIKKQNCKMRKC and KGRRSRRCGQCPGCQVPEDCGVCTNCLDKPKFGGRNIKKQDCKMRKC are within error of each other in abundance fitness: 0.27 ± 0.17 for the first, 0.3 ± 0.16 for the second.

Going from KGRRSRRCGQCPGCQVPEDCGVCTNCLDKPKFGGRNIKKQQCKMRKC to KGRYSRRCGQCPGCQVPEDCGVCTNCLDKPKFGGRNIKKQCCKMRKC, the abundance fitness falls from 0.119 ± 0.11 to -0.184 ± 0.17.

KGRVSRRCGQCPGCQVPEDCGVCTNCLDKPKFGGRNIKKQCCKMRKC and KGRRSRRCGQCPGCQVPEDCGVCTNCLDKPKFGGRNIKLQCCKMRKC are within error of each other in abundance fitness: 0.103 ± 0.1 for the first, -0.086 ± 0.091 for the second.

KGRRDRRCGQCPGCQVPEDCGVCTNCLDKPKFGGRNIKKQCCKMRKC and KGRRSRRCGQCPGCQVPEDCGVCTNCLDKPKFGGRNIKKQCCKMRRC are within error of each other in abundance fitness: -0.037 ± 0.14 for the first, -0.205 ± 0.09 for the second.

KGRRSRRCGQCPGCQVPEDCGVCTNCLDKPKFGGRNIKKQCCKMRYC and KGRRSRRCGQCPGCQVPEDCGVCWNCLDKPKFGGRNIKKQCCKMRKC are within error of each other in abundance fitness: -0.128 ± 0.16 for the first, -0.392 ± 0.11 for the second.

KGRRSRRCGQCPGCQVPEDCGVCGNCLDKPKFGGRNIKKQCCKMRKC and KGRRSRRCGQCPGCQVPEDCGVCINCLDKPKFGGRNIKKQCCKMRKC are within error of each other in abundance fitness: -0.207 ± 0.086 for the first, -0.345 ± 0.12 for the second.

Going from KGRRSRRCGQCPGCQVPEDCGVCTNCLDKPKFGGDNIKKQCCKMRKC to KGRRSRRCGQCPGCQVPEDCGVCTNCLDKPKFGGWNIKKQCCKMRKC, the abundance fitness falls from 0.168 ± 0.1 to -0.524 ± 0.14.

KGRRSRRCGQCPGCQVPEDCGVCTNCLDKPKFGGMNIKKQCCKMRKC and KGRRSRRCGQCPGCQVPEDCGVCTNCLDKPKFGGFNIKKQCCKMRKC are within error of each other in abundance fitness: 0.143 ± 0.1 for the first, -0.043 ± 0.13 for the second.

First: KGRRSRRCGQCPGCQVPEDCGVCTNCLDKPKFGGNNIKKQCCKMRKC
Second: KGRRSRRCGQCPGCQVPEDCGVCTNCLDKPKFGGGNIKKQCCKMRKC
The abundance fitness of the first is higher: 0.343 ± 0.14 for the first, 0.022 ± 0.075 for the second.

Going from KGRRSRRCGQCPGCQVPEDCGVCTNCLDKPKFGGTNIKKQCCKMRKC to KGRRSRRCGQCPGCQVYEDCGVCTNCLDKPKFGGRNIKKQCCKMRKC, the abundance fitness falls from -0.016 ± 0.096 to -0.485 ± 0.16.

Going from KGRRSRRCGQCPGCQVGEDCGVCTNCLDKPKFGGRNIKKQCCKMRKC to KGRRSRRCGQCPGCQVPEDCGVCTNCLYKPKFGGRNIKKQCCKMRKC, the abundance fitness falls from -0.082 ± 0.084 to -0.657 ± 0.22.

KGRRSRRCGQCPGCQVPEDCGVCTNCLNKPKFGGRNIKKQCCKMRKC gave an abundance fitness of -0.326 ± 0.11.
